The text below walks through data of patent publication US20230212511A1.

For test [1], the target named is mutant truncated (mt) TpoR, lacking the final five amino acids (human) (UniProt P40238). As to the kind of experiment: cell-based or functional assay.
Test [2] addresses full length human TpoR (wild type), expressed on transduced cells (human) (UniProt P40238). As to the kind of experiment: cell-based or functional assay.

As for “recombinant human Tpo (Miltenyi Biotec) (from UniProt P40225 22-195) (ligand)”, the values for the enrichment of TpoR positive primary human T-cells (from 20% transduced) in the presence of Tpo (% TpoR positive) in test [1] and in test [2] were 77.9 and 87.5, respectively.
